Measured values taken from US20090282582A1, “ENVIRONMENTAL STRESS RESPONSIVE PROMOTER AND METHOD OF TISSUE-SPECIFIC GENE EXPRESSION USING THE SAME” (RIKEN, priority 2006, published 2009).

B1: Promoter of RAFL06-07-B19: environmental stress responsive promoter DNA, SEQ ID NO: 4, upstream of At3g11410 (AHG3 gene) (nucleic acid, listed as Arabidopsis thaliana)
DNA: CCCGAACTTAACCCAAATGCCCACCTTTAATTATTCAAAACCAAAAAAGAAGTGTTTGATGCTGAGGTTTGAACTCATCAGATACACGTAACTATTTTCCAATTTATTTTCGTTTATGTGCATTTCAGAATTTCAAGCATAAATATACTCTTATTGTTTAAACATTTCAAATTGCATGTGTGAAATAATATCAGAGTTAGAATATATGTTAATCTTCTCTTCTCCTAGATTCAGTTAGATACGTTTCTATCTTCTTTTAGGCAACATCTCTTGTACAAATAGTCTCTTTGGCAATTCAATACAATCAACCTTTTACGATATATATATTTGTTATTTCTTGTACAAATAGGATCAAAATTGTTATTTCTGAAGCAAATTTTCTTTAGTTTGGATGTCAATTATATCCTCGATTAATATGTAATCACGGAACGGATTCACGATGCGTTATTTTAGAAGCAAATTTATACTTGATAGTACGTTCAGAGGCATCGCTTTTGTACAAATTGAAGCGGGTTTGTTCAATATTTAAAATAACACAGGAAACATTCAAATGTATTATTGATGTTGCTTAGGTTTGTGAAATGATATGAACCATATCGTATATATTACTAGATTTTTCTTATATGTTTTAAGGGTAGTGGGGCTGACCTATCATTCTGTTTGGCATTACCAATCAGACTATCAGAGTATTCACCATTCAGGATTCCATAACTAGAAAAAGAAGGGGTTTACATTTTCTCATACTGTATAATTTTCTACTATCAGAGATTTTATCGATTACATTAATCTCATAGTGATTATTCTGATTTATAAAAAAGTTGACAAAATAATTAAAACCAGTATTTTATAACAAGATTGTCTCTCTCCCATGGCCATTATTTTGACCTCTGACTTATTTAAATCTTAATTAACAGCATAATACTGTATTAAGCGTATTTAAATGAAACAAAATAAAAGAAAAAAAGAACAAAACGAAAGAGTGGACCACATGCGTGTCAAGAAAGGCCGGTCGTTACCGTTAAGGTGTGTCGAACTGTGATTGGGCCACGTTAACGGCGTATCCAAAAGAAAGAAAGGGCACGTGTATAGATCTAGGAAAAAAGAAAGAATGGACGGTTTAGATTGTATCTAGGTACCAGGAAATGGAACGTCACACCAAACGGTACGTGTCGGATCCTGCCCGTTGATGCTGACGGTCAGCAACTTCCCCTTATTCATGCCCCCCTGCCCGTTAATTACGTGTAACCCTTCCATGCGAAAATCAAACCCTTTTTTTTTTTTGCGTTCTTCTTCAACTTTTCTTTTTAAATCAAACCTTTTCTTTTTAAAATCACATTGCATTTCCTAACGCTCAACAAAATCTCTCTCTACTAATATCTCTCTCTCTCTCTCTCTATTGTTGAAGAAGACTCATAATCGGAGATTGTTTGTTTTTGGTTTGCTCTGTAAATTGGAGAAGTTTTGTTAGAGATCAA
B2: Promoter of RAFL05-18-I12: environmental stress responsive promoter DNA, SEQ ID NO: 2, upstream of At2g47770 (homolog of benzodiazepine receptor) (nucleic acid, listed as Arabidopsis thaliana)
DNA: ACCATGGCACCTGAAATACGTAAGGATACAAGAAGAGATATCATCACTGAATTCACTAAAATCACTCCCATCATAAACAGACAAATCAAAACCAAAATATTGTTCATTAACATCGTAAATGGACAACGCTTGACAACGTCTACAAATACTTGATGAAAAGAGATAAGAAATAAGTCTTCATTTATACCACATCAGTCTTCACGTAGATGATCAAGACGATCCCCAGATTGACAATGTAGAGAACACCAAAAAGAATCTGCAAAATGTAAGAGAGTAGAATTGAGACAAATGAAGCGATGGATGGATCAAATTCCGCAGCTAATCCAAAGATAGGAGATTCAAAGAGAGGGAATTGCAAGCACCTGAGCAGGGTAGACTTCCCCTCCAGTTAAGTTCTGCACTGCAGAGTAAACATAGAGGAAACCTGCTGGATAAACCAATGGCCCTGTATCGCCTTTCAAGTTCCCATAGTCTCTCTCTCCCCCGAGAAACCCACTAACCTGCCCCAATTAGATAAATTTCACTTAAAGACTACTAGTTTACTTTGAAGAAACCACAGTTGACCATTGACACTTACCTGTGACATGTAAGCATCCCAATCGATCTTCGTGTCTGTTAAAGGCAAATGACGAAATTTGGTTTAAAACCTATGCAAATGCACATTTCGAGGGATACGCAAGCAAAAAAAAAAAGGAGGTAAATAGCTCTCACATGGAACATAGGCGATAATAAGTGCGACTAGGATTGCATCAGCAAGAATTAGCGCGAATGCGAATGGAACTGCAGGTTTTTTGAATAGATCGGATCGATTCGTCTCCTTCCCCAGCCGACGGCTACGAGAAGCTCTCAAACTCGCCGGTGATGAGGCGCCCGCCATGAAAACAGAGCAAATCGCATCAGCGTCTAGCCAACGCCGCGTAACAGACAACTACTTCCATATTACTACTCTTCTAATTAGCCCAAATTAAATGAGCCTATTGGGCTTCTTGTCTTAGTCGGTGTAGAGCCCAATTGTTGTTTTATTTTTTAATAATGCAAAAGTATTAAGCGATAAATAAATAAGCATCGCAATCGTCCCAAAACTGTGTGTATGCATCAGACATGAGCATATAGAGTAAGCACGTGTCCACACTTTTTCACAAAGTTATCTAAAAACAAAAAACAATTAATTAGCATTCGACGTGTACATATCACTCGCCACGTGTACAAGAGCCTTGGCCTTTTTGCTTCTTCTTCTTGTCTATTAATATCATCTCCTGATTATACTCTCTTTTGACCAAGCTGCTTCTTCTCCATCTATCCAACATCTCAAATCTCAGTAATCTTGTTCCTTCGATTCTGTTTTGGACGTTTGTA

How the values were obtained:
[1] = system: Arabidopsis thaliana (columbia ecotype) plant body; assay: full-length cDNA microarray analysis of gene expression levels after environmental stress application; details: in vivo
Method: In this example, the gene expression levels at the time of application of various types of environmental stresses were analyzed using microarrays. Specifically, the microarrays described in Seki et al., “Monitoring the expression profiles of 7000 Arabidopsis genes under drought, cold, and high-salinity stresses using a full-length cDNA microarray,” Plant J. 31: 279-292, 2002, were used, and analysis was carried out in accordance with the method similar to the method described therein. Various types of environmental stresses were applied to a plant body under the following conditions. Specifically, low-temperature stress application was carried out by introducing a plate containing a plant body into a low-temperature chamber (4° C.). Dehydration stress application was carried out by capturing the plant body with forceps while refraining from damaging the plant body, roughly removing moisture from the plant body on a Kim Towel, placing the plant body on another plate, placing the plate in a clean bench while leaving the lid open, letting it stand for 2 hours, and then closing the lid. Salt stress application was carried out by dispensing a mixture of MS medium (containing 1% sucrose, 0.1% agar, and 1 mM luciferin) with 250 mM NaCl to the roots of the plant bodies (200 μl per plant body) using a Pipetman. ABA stress application was carried out by dispensing a mixture of MS medium (containing 1% sucrose, 0.1% agar, and 1 mM luciferin) with 100 μM ABA to the roots of the plant bodies (200 μl per plant body) using a Pipetman. As a plant body to which environmental stress is to be applied, Arabidopsis thaliana (columbia ecotype), which had been cultivated on a germination medium containing Murashige and Skoog Salt, 3% sucrose, and […] for 3 weeks, was used. Cultivation conditions were determined so as to maintain the temperature in the chamber at 22° C. with a 16-hour light period and an 8-hour dark period. Total RNA was extracted from plant bodies after environmental stress application or from plant bodies to which no environmental stress had been applied using the TRIZOL Reagent (Life Technologies), and mRNA was extracted using the mRNA isolation kit (Militenyi Biotec Auburn). In accordance with the method described in the above article, mRNA samples were reversely transcribed in the presence of Cy3 dUTP or Cy5 dUTP (Amersham Pharmacia). Microarray analysis was carried out using cDNAs obtained via reverse transcription. Data obtained via microarray analysis were analyzed using the Quantarray Version 2.0 (GSI Lumonics).

[2] = system: transgenic Arabidopsis thaliana plant body (luciferase reporter gene); assay: luciferase assay of promoter::LUC transgenic plants after environmental stress application; format: in vivo; details: for Tissue allowing specific induction: summary over stress types
Method: Specifically, promoter regions were isolated from these genes, transgenic plants in which luciferase reporter genes were to be expressed under the control of such promoters were prepared, and tissue specificity of the promoters was inspected via luciferase assay.
In this example, DNA fragments containing promoter regions of the genes identified in Example 1 were recovered via PCR.
The nucleotide sequences of the amplified DNA fragments were determined in accordance with a conventional technique to confirm that mutagenesis, such as substitution or deletion, was not introduced thereinto. After the absence of mutagenesis was confirmed, the recovered DNA fragments were introduced into the vector for promoter analysis (i.e., a vector prepared by introducing the Gateway recombinant sequence (tradename: Gateway Vector Conversion System, Invitrogen) and the luciferase reporter gene into the pGreen vector (Plant Molecular Biology 42: 819-832, 2000)) using the Gateway recombination system to construct a recombinant vector.
The recombinant vector prepared in (1) above was introduced into a plant via Agrobacterium infection. When a gene is introduced via Agrobacterium infection, a process of infecting a plant with Agrobacterium containing a plasmid comprising the target gene construct is necessary. This process was carried out via vacuum infiltration. Specifically, a plant body of Arabidopsis thaliana that had been grown in soil comprising vermiculite and an equivalent amount of pearlite was soaked in a culture solution of Agrobacterium containing the recombinant vector prepared in (1). The resultant was placed in a desiccator, suctioned with a vacuum pump to 65 to 70 mmHg, and then allowed to stand at room temperature for 5 to 10 minutes. The pot was transferred onto a tray, covered with a wrap, and kept moistened. The wrap was removed on the following day, the plant was allowed to grow in that state, and seeds were then harvested.
Subsequently, seeds were sown on MS agar medium to which antibiotic hygromycin has been added in order to select an individual having the recombinant vector prepared in (1). Arabidopsis thaliana that had been grown in this medium was transferred to a pot and allowed to grow therein. Thus, seeds of transgenic plants to which the recombinant vector prepared in (1) has been introduced were obtained.
The seeds of the transgenic plant lineage prepared in (2) were sowed on MS agar medium. The plant body 10 days after sowing was used for luciferase assay.
At the outset, 1 mM luciferin (containing 0.01% Triton-X) was sprayed over the entire plant body 5 times. After the plant body was allowed to stand in the dark for 5 minutes, luciferase luminescence was assayed using ARGUS (assay after treatment for 0 hours). Subsequently, various types of environmental stresses were applied (see below). Low-temperature stress application was carried out by introducing a plate containing a plant body into a low-temperature chamber (4° C.). Dehydration stress application was carried out by capturing the plant body with forceps while refraining from damaging the plant body, roughly removing moisture from the plant body on a Kim Towel, placing the plant body on another plate, placing the plate in a clean bench while leaving the lid open, letting it stand for 2 hours, and then closing the lid. Salt stress application was carried out by dispensing a mixture of MS medium (containing 1% sucrose, 0.1% agar, and 1 mM luciferin) with 250 mM NaCl to the roots of the plant bodies (200 μl per plant body) using a Pipetman. ABA stress application was carried out by dispensing a mixture of MS medium (containing 1% sucrose, 0.1% agar, and 1 mM luciferin) with 100 μM ABA to the roots of the plant bodies (200 μl per plant body) using a Pipetman.
Luciferase luminescence was assayed 2, 5, and 10 hours after the above various types of environmental stresses had been applied using the ARGUS system (Hamamatsu Photonics). […]

Row | Molecule | Environmental stress type to which the promoter responds [1] | Tissue in which specific induction of expression is realized ([2]; ABA stress (100 μM ABA)) | Tissue in which specific induction of expression is realized ([2]; ABA stress (100 μM ABA), listed as promoter of RAFL06-07-B19) | Tissue in which specific induction of expression is realized ([2]; Dehydration stress) | Tissue in which specific induction of expression is realized ([2]; Dehydration stress, listed as promoter of RAFL06-07-B19) | tissue in which expression is induced ([2]; dehydration stress applied for 5 hours) | tissue in which expression is induced ([2]; dehydration stress applied for 10 hours) | tissue in which expression is induced ([2]; dehydration stress applied for 10 hours, listed as promoter of RAFL06-07-B19) | Tissue allowing specific induction [2] | activity to induce gene expression ([2]; 5 hours after dehydration stress application) | Tissue in which specific induction of expression is realized ([2]; Dehydration stress, listed as promoter of RAFL05-18-I12)
1 | B1 | Dehydration, salt, | Root tissue | root tissue | Stem and leaf tissue and root tissue*^1 | stem and leaf tissue and root tissue | stem and leaf tissue and root tissue | leaf tissue and root tissue | lowered activity to induce gene expression in stem tissue and root tissue but to induce gene expression in leaf tissue | Stem and leaf tissue and root tissue | – | –
2 | B2 | Dehydration and salt | – | – | Stem and leaf tissue and root tissue | – | – | – | – | Stem and leaf tissue and root tissue | strong activity | stem and leaf tissue and root tissue
